What all share (assay): purified protein
Common to all, as to details: 0.5 mM H2O2, 50 mM KPi, 150 mM NaCl, pH 7.0, 25 °C

In one series the test system is COc1ccccc1O.
In another series the test system is I.
Substrate in series [1]: COc1ccccc1O
It is filed as biochemical, cyanobacterium TDX16.

Substrate in series [2]: I
It is filed as biochemical, cyanobacterium TDX16.

Substrate in series [3]: COc1cccc(OC)c1O
The class given is biochemical, cyanobacterium TDX16.

Usually Km stands for the concentration of substrate that gives half-maximal velocity. As usually defined, the kcat is the maximal rate divided by the concentration of active sites. As usually defined, the kcat/Km is the turnover number divided by the Michaelis constant.

As for bovine LPO (Bos taurus), in the series on COc1ccccc1O, the Km was 22 mM, the kcat was 10 s⁻¹ and the kcat/Km was 500 M⁻¹ s⁻¹. Besides, in the series with I, the Km is on record as 14 mM, the kcat came out at 206 s⁻¹ and the kcat/Km came to 15000 M⁻¹ s⁻¹.

B1: CyanoPOX (cyanobacterium TDX16) (protein)
chain: AQNRTIDGTDNNLSHNVWGSTNQHLDRAGPAAYADGMSMPAGGSRPSARAVSNGIAAQTGSMLNDRMLSDWVWQWGQFLDHDLDLTDAASPAESFPIPVPMGDPFFDPFNTGTQTIGLSRSAYDPATGSVDARQQMNQITSWIDASNVYGSDMTRANALRTMSGGRLATSAGDLLPFNTGGLPNAGGTSPSLFLAGDVRSNEQSGLAAVHTLFVREHNRLADQIAAANPGMGDEDIYQQARKIVGAQMQIITYNEFLPALLGSAAPSPMSIGYDDSINPNIMNEFANACYRVGHTMLSPTILRLDNAGNVIPHGNLALQDAFFNPNRIINEGGIAPILKGLASQAMQEIDNKIVDDVRNFLFGPPGSGGLDLASLNIQRGRDHGLPDYNSTRVMMGLTSVSSFADISSDPAVQAALMSLYGTVNDIDLWVGALAEDHLAGSSVGELIAAVLGEQFTRLRDGDRYWYERDDFFVNNPSLLAELQATRLSDIIRRNSDITNIQDNVFLIPEPATLGLLMFGAAFLRKRRS
notes: Predicted protein 556 residues; synthetic codon-optimised gene, His-tagged (calculated 58 kDa), E. coli NEB10beta, monomer
Consider B1, for which the Km in “purified protein [1]” was 59 mM; in the series “purified protein [2]” it was 7 mM; in the series “purified protein [3]”, 35 mM. Further, the values for the kcat in the series “purified protein [1]”, in the series “purified protein [2]” and in “purified protein [3]” were 135 s⁻¹, 885 s⁻¹ and 620 s⁻¹, respectively. Also, the kcat/Km in the series “purified protein [1]” worked out at 2000 M⁻¹ s⁻¹; in “purified protein [2]”, 126000 M⁻¹ s⁻¹; in the series “purified protein [3]”, 18000 M⁻¹ s⁻¹.
